Test results as given in patent US11241387B2, “Carrier-binding agent compositions and methods of making and using the same” (Mayo Foundation for Medical Education and Research, priority 2015, dated 2022).

Experiments:
[1] = biological target: T1, ABX (Homo sapiens, UniProt P02768); experiment: Bio-Layer Interferometry (BLItz) binding of antibody to ABX; details: pH 3, 5, 7, 9; BEV also RT, 37° C. and 58° C.
T1 construct: purchased Celgene Corporation, Summit, N.J
Experimental: The association and dissociation constants were calculated using the BLItz software.

[2] = biological target: T2, CD20 (Homo sapiens, UniProt P11836); experiment: Blocking of fluorescent anti-CD20 labeling of Daudi cells (flow cytometry); format: binding; details: Daudi cells pretreated prior to CD20 labeling
T2 construct: host or cells: Daudi B-cell lymphoma cells
T2 sequence (P11836 1-297): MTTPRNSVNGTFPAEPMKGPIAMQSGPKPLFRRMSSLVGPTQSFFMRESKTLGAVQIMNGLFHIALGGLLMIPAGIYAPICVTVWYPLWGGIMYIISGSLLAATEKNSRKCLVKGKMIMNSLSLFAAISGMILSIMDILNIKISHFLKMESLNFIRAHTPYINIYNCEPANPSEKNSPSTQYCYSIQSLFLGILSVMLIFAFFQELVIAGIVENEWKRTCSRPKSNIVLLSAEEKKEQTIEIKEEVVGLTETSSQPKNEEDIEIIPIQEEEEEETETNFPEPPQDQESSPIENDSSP
Text: FIG. 12 depicts the results of an experiment in which CD20 positive Daudi lymphoma cells were labeled with fluorescent tagged anti-human CD20 or isotype matched control in panels F and A, respectively, and analyzed by flow cytometry.
CD20 positive Daudi lymphoma cells were labeled with fluorescent tagged anti-human CD20 or isotype matched control in panel F and A, respectively, and analyzed by flow cytometry.

[3] = tested on: Daudi human lymphoma cells; experiment: Daudi xenotransplant model in athymic nude mice; format: in vivo; details: ABX 30 mg/kg, rituximab 12 mg/kg, or AR160
Experimental: (§1) To test tumor efficacy, 1×10^6 A375 human melanoma cells were implanted into the right flank of athymic nude mice (Harlan Sprague Dawley, Indianapolis, Ind.). […] Tumor size was monitored 3 times/week and tumor volume was calculated with the following equation: (length×width)/2. Mice were sacrificed when the tumor size equaled 10% of the mouse body weight or about 2500 mm^3. The day 7 percent change from baseline was calculated as follows: [(tumor size on treatment day-tumor size on day 7)/tumor size on treatment day]×100.

[4] = tested on: A375 human melanoma cells; experiment: A375 human melanoma xenograft in athymic nude mice; format: in vivo
Experimental: In vivo experiments were performed at least 2 times. The number of mice required for those experiments was determined by power analysis. Mouse tumors were measured 2-3 times/week and mice were sacrificed when the tumor was 10% by weight. […] The end point of the mouse studies was median survival. Kaplan-Meier curves were generated and Mantle-Cox test was performed to determine significance of median survival between treatment groups. The in vitro results presented are representative of at least 5 repeated experiments. Statistical analyses of in vitro and in vivo percent change from baseline experiments were done using the Student's t-test.
as §1

Substance	pH and temperature dependence of binding affinity to ABX [1]	blocking of CD20 binding of fluorescent anti-CD20 [2]	median survival [3]	therapeutic effect on tumor volume ([4]; 12 mg/kg dose)	median survival ([4]; BEV 12 mg/kg, ABX 30 mg/kg, BEV followed by ABX, or AB160)
rituximab	decreased with higher pH	specifically blocked	12 days	–	–
bevacizumab	highest binding affinity observed when the particles are formed at pH 5 and 58 °C	–	–	not therapeutic	14 days
